This is an account of results in the DeepSol protein solubility set.

The nature of this series: soluble on expression in E. coli; label from the status in PepcDB or PDB records.
As to “MEYRMFDIGVNLTSSQFAKDRDDVVACAFDAGVNGLLITGTNLRESQQAQKLARQYSSCWSTAGVHPHDSSQWQAATEEAIIELAAQPEVVAIGECGLDFNRNFSTPEEQERAFVAQLRIAADLNMPVFMHCRDAHERFMTLLEPWLDKLPGAVLHCFTGTREEMQACVAHGIYIGITGWVCDEPTRTGAAGTFAVDSGGKITDRNLEHHHHHH”, the “soluble on expression in E. coli” value is listed as “not soluble”.

With “MLGDRCAPIKASGVLIGDSVLVTDVEQARSLYSCGYYGQPLDVEKPRGADFEGPLRLSLIESLYLAEKGVLEVAKPDGSSVGVEDLRTAVRGNPRFSMLYNIYRDLRERGFVVRSGLKFGSDFAVYRLGPGIDHAPFIVHAYSPEDNIDPVEIVRAGRLSHSVRKKFVFAVTRGGDVSYLMIDWFRP”, the “soluble on expression in E. coli” value is “soluble”.

On to “MGSDKIHHHHHHMKVSADVRAMIERRKKNYSLEAPFYTSDEIFALDMEAIFRQHWIQVAVEPDVPEPGDYITVDIGNDSILIVRDDDMQVRAFHNVCRHRGARLCNTDKGSLGNIVCPYHSWTYNLNGDLMFAEHMGEQFDRCKHSLKAVHVENLAGLIFICLADNPPADFAVVRAAMEPYMLPHALASCKIAASIDIIEEGNWKLTMENNRECYHCVANHPELTISLYEYGFGYQRTPANEEGMAAFEETVARRTAQWEAMQLPSAEIERLADLVTGFRTQRLPLDRDGESQTLDAKVASKKLLGGFEQADLGGLSFWTQPNSWHHFMSDHIVSFSVIPLSAGKTLVRTKWLVHKDAREGIDYDVDNLTAVWRATNDQDRALVEYSQRGATSSAYEPGPYSPFTEGLVEKFCEWYIGRMAQYSNAPQTHDAGDTAPASHGEKVVSFKR”, for which the “soluble on expression in E. coli” value is “not soluble”.

As to “GSHMAAELDSLLGQEKERFQVLPGRDKMLYVAAQNERDTLWARQVLARGDYDKNARVINENEENKRISIWLDTYYPQLAYYRIHFDEPRKPVFWLSRQRNTMSKKELEVLSQKLRALMPYADSVNITLMDDVTAAGQAEAGLKQQALPYSRRNHKGGVTFVIQGALDDVEILRARQFVDSYYRTWGGRYVQFAIELKDDWLKGRSFQYGAEGYIKMSPGHWYFPSPL”, the “soluble on expression in E. coli” value was “soluble”.

As for “MKFGKEIAKKNQIIYRYIILKIQSFEWPANTRIFSERQLEIRFNSSRSQIRSVLATLLNKNIIRYTKNTPGYFVCKDVGFSFFHKTQDNLKVKYAKLSTLIKKLLSQDDASVFANIDSTVHLDKFKGIEAKFFDENKKHFLNVCFFAKDDILNILDENNLQQQFFREFAYNGIAIEKRHCVTSVDKESGCLVMYDMYYDDNDNFVVASKSNFLNPELKVINA”, the “soluble on expression in E. coli” value was “soluble”.

Take “MGSDKIHHHHHHIPFDESIQTVDDVNLAVIGIYDAFKSSALYSGNLTILPDLQADLVYGVNGNTNTFGDIWRWKDILATNTSIEAVYAGLYNVINRCNFMLDRVDRVRNNTTDDKDLYKLDQCCGEAYFARAIAYSELVKMFCKAYESDEDAANQLGVILTKHYQGNEEMKRASLKASYEFILEDLDRAAQLLALDKDYDPSVDGALFNNATYFNEYTVYALRARVALYMRKWDEAIKYSSKVIDSEYYLLASCTRTISSGVSYYKYMWTDDMSTEAIWKVGFTINSYGGKLGQIFLNYNHVNYRPDYVPANWVFGLYDSNDLRPETIFQTLQTGFSHGLSWPLLIKYAGNNEFIAANILHVSMPKVLRLSEQYLIRAEAYVQQAQPDYGRAGKDITTLRTARYSTYGGSTALSASNAMEVIEAERVKELYMEGFRLHDLKRWHKGFERKPQDQSLANGSSLKVEADDPLFVWPIPQHELDAPGSQVQPNESNK”: the “soluble on expression in E. coli” value is “not soluble”.

For “MQLSHRPAETGDLETVAGFPQDRDELFYCYPKAIWPFSVAQLAAAIAERRGSTVAVHDGQVLGFANFYQWQHGDFCALGNMMVAPAARGLGVARYLIGVMENLAREQYKARLMKISCFNANAAGLLLYTQLGYQPRAIAERHDPDGRRVALIQMDKPLEP”, the “soluble on expression in E. coli” value is on record as “soluble”.

In the case of “FTLVCITAASRHHWGTEVDIFDPDLLPRGQSLQLEPWEYEKGGYFFELSEFLAENLPHFDFALPFMNMQSNKKVGREPWHISYLPL”, the “soluble on expression in E. coli” value is reported as “not soluble”.

Consider “MGSDKIHHHHHHMLLALSTWSEIEERLKSSTSVVVPIGSNEQHGPTGLLGTDWLCPEIIAHEASKRASDKVLVAPTFNIGMAQHHLAFPGTIFLRPSTFIAAIGDWVRSLGAHGFTRIYFLNGHGGNVASIEAAFSEIYADYSFRQQRAPFALKLKNWWDLAGVNALANRQFPTGHGSHATPSEIAVTQWAYPETIKTAAYSPPIAPTGPIREALDFRARYADGRMGSDPAQATPEKGGELVSMAANALIEDLAAFAAERAPA”, for which the “soluble on expression in E. coli” value is “not soluble”.
